T1: Tenascin-R, AP- or Fc-tagged (interactome library) ( (human or mouse sequence …, UniProt Q8BYI9 32-1358))
T1 construct: In the BLI experiment only the Fc fusion stood, captured from conditioned medium of EXPI293 cells on anti-human Fc sensors; also called TenR; TenR-Fc/AP; source: Expi293 cells, transfected, conditioned medium used without purification; not shown: Fc (human IgG1) in the Fc fusion, C-terminal, kept; alkaline phosphatase (human) in the AP fusion, C-terminal, kept
T1 sequence (looked up): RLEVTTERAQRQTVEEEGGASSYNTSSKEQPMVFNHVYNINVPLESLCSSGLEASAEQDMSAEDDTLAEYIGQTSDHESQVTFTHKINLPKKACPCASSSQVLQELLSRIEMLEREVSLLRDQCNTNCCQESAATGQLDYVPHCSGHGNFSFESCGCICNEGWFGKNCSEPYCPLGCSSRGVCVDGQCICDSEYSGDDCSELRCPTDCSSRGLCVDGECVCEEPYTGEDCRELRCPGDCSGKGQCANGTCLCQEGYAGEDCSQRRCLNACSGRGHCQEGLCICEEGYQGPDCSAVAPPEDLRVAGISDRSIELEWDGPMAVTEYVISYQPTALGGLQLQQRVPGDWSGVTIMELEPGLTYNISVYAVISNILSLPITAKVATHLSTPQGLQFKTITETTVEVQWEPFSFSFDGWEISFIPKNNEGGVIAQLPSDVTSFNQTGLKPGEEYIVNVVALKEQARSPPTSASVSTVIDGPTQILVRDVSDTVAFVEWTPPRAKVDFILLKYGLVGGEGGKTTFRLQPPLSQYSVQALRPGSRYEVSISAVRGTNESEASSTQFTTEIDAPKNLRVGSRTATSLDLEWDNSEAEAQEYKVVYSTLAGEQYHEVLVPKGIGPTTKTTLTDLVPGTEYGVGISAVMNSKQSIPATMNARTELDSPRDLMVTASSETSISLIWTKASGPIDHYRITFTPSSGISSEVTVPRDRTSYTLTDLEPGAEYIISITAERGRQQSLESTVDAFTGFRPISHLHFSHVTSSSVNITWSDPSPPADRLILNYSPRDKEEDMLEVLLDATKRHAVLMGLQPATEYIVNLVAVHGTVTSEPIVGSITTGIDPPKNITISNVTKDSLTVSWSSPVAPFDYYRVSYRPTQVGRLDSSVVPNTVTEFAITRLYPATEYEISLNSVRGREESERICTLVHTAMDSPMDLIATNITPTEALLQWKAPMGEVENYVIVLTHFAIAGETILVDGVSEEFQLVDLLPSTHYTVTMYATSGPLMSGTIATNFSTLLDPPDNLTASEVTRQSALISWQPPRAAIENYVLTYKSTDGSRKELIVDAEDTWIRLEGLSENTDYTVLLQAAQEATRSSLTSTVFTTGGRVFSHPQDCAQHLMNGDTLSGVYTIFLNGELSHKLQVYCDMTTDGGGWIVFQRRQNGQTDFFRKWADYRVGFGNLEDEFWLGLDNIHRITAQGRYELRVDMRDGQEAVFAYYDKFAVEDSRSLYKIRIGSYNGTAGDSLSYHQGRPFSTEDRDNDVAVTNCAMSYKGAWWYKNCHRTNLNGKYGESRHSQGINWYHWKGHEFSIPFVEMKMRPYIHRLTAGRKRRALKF

T2: TenR-Fc (Tenascin-R fused to the Fc region of human IgG1) ( (human or mouse sequences …, UniProt Q8BYI9 32-1358))
T2 construct: Tenascin-R, secreted ECM protein; also called Tenascin-R-Fc; source: EXPI293 cells, transfected, conditioned medium; not shown: Fc (human IgG1), C-terminal, kept
T2 sequence (looked up): T1 sequence (looked up)

B1: purified IgSF8 (BLI analyte) (natural protein)
chain: RQVHVPRGPLYRVAGTAVSISCNVSDYEGPAQQDFEWFMYRPEAPATSLGIVSTKDSQFSYAVFGPRVASGDLQVQRLKGDSVVLKIARLQAQDSGFYECYTPSTDTQYLGNYSAKVELRVLPDELQVSAAPPGPRGRQAATSPSRLTVHEGQELALGCLAQTKTKKHTHLSVSFGRAIPEAPVGRATLQEVVGLRSDMAVEAGAPYAERLASGELRLSKEGTDRYRMVVGGAQAGDSGTYHCTAAEWIQDPDGSWVQVAEKRAVLAHVDVQTLSSQLAVTVGPGERRIGPGEPLELLCNVSGALPPPGRHAAYSVGWEMAPAGAPGPGRLVAQLDTEGIGSLGPGYEDRHIAMEKVASRTYRLRLEAARPADAGTYRCLAKAYVRGSGTRLREAASARSRPLPVHVREEGVVLEAVAWLAGGTVYRGETASLLCNISVRGGPPGLRLAASWWVERPEEGELSSGPAQLVGGVGQDGVAELGVRPGGGPVSVELVGPRSHRLRLHGLGPEDEGIYHCAPSAWVQHADYSWYQAGSARSGPVTVYPYTHAVDT
modifications: Same molecule as Sm1. Secreted ectodomain, likely N-glycosylated; limits by convention (UniProt extracellular domain without the signal peptide).
B2: IgSF8 (purified IgSF8 protein used as analyte in biolayer interferometry) (receptor)
chain: B1 chain
modifications: Secreted ectodomain, likely N-glycosylated. Limits are the UniProt extracellular domain without the signal peptide. Mouse is inferred from the mouse IgSF8 cDNA (BC048387) and the mouse IgSF8-His used

Assays:
[1] = target: T1, Tenascin-R, AP- or Fc-tagged …; assay: BLI; BLItz, RT; TenR-Fc captured from EXPI293 conditioned medium on anti-human Fc sensors; purified IgSF8 34-0.133 µM in twofold dilution; 10 mM Hepes pH 7.4, 150 mM NaCl, 1 mM CaCl2, 0.2% Tween20, 1% BSA; KD from response vs concentration; Fc-only sensor subtracted; settings: one partner purified
[2] = target: T2, TenR-Fc (Tenascin-R fused to the Fc …); assay: BLI; BLItz, room temperature; TenR-Fc captured from conditioned medium on anti-human Fc biosensors; purified IgSF8 34-0.133 uM in twofold dilution; association in 10 mM Hepes pH 7.4, 150 mM NaCl, 1 mM CaCl2, 0.2% Tween20, 1% BSA; Fc-only sensor subtracted; binding response against concentration fitted as one site specific binding; settings: one partner purified

Row | Binder | Kd [1] | Kd [2]
1 | B1 | ~1400 nM | –
2 | B2 | – | 1390 nM

From article PMC7560607, “Synapse type-specific proteomic dissection identifies IgSF8 as a hippocampal CA3 microcircuit organizer” (Nature Communications, 2020)
